Data taken from publication PMC7335806 (2020).

B1: His-tagged human Sar1A (H79G) [human] / RRFR peptides (first intracellular loop of Fzd6) [mouse] (parent complex)
chain 1: not shown
chain 2: VRRFRYPERPC

Variants of: B1
Assay: peptide pull-down (peptides linked to thiopyridone-Sepharose 6B), immunoblot quantification; n = 3; parent: 1; read off a plot

Row | Variant | ratio to parent
1 | chain 2 R2A, chain 2 R3A, chain 2 R5A | ~0.08
